The record followed here is patent US20180099046A1 (JIANGSU HENGRUI MEDICINE, published 2018).

Assay [1] concerns the target T1, human sclerostin protein (R&D SYSTEM, 1406-ST/CF) (human, UniProt Q9BQB4 24-213, biotinylated in the LRP-6 blocking assay; not labelled in Biacore).
T1 construct: Bought protein; also called human SOST; SOST (R&D, Catalog #1406-ST-025)
T1 sequence (looked up): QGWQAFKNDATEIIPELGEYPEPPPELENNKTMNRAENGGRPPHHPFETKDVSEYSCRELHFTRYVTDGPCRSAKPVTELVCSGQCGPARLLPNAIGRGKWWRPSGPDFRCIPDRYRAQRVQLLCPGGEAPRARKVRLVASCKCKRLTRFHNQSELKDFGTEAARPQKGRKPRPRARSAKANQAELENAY
In words: SPR (Biacore X100), antibody captured by anti-human antibody, SOST as analyte, 1:1 Langmuir fit. The text has this: (§1) The anti-human capture antibody was covalently linked to the CMS biosensor chip (Cat. #BR-1000-12, GE) of a Biacore instrument (Biacore X100, GE) according to the method described in the instructions of anti-human trapping kit (GE, Cat.# BR-1008-39) for affinity capturing an amount of a test antibody. Then, a gradient of concentrations of SOST antigen (human SOST, R&D SYSTEM, Cat.#1406-ST-025/CF, R&D; monkey SOST, cyno-SOST-Flag, obtained by purification, encoded by SEQ ID NO: 4 of Example 1; murine SOST, m-SOST-Flag, obtained by purification, encoded by SEQ ID NO: 3 of Example 1) were flowed through the surface of the biochip. The reaction signal was detected in real-time using a Biacore instrument (GE, BiacoreX100) to obtain the association and dissociation curves. After each cycle of dissociation was finished in the experiment, the biochip was washed and regenerated with regeneration solution in the anti-human capture kit.
(§2) The amino-coupled kit used in the experiments was purchased from GE (Cat. #BR-1000-50, GE), and the buffer was HBS-EP+10× buffer solution (Cat. #BR-1006-69, GE), and the buffer was diluted to 1× (pH 7.4) with D.I. Water.
(§3) The data obtained was fitted by GE BlAevaluation version 4.1 software using a 1:1 Langmuir model, and the affinity value was generated.
Background: Surface plasmon resonance follows binding to a sensor surface in real time, without labels.

Assay [2] concerns the target T2, cynomolgus monkey sclerostin with a Flag tag (cyno-SOST-Flag) (cynomolgus monkey).
T2 construct: also called monkey SOST
The assay is described as above.
From the text: as §1, §2, §3

In assay [3] the target is T2, cynomolgus monkey sclerostin with a …. Description: competition ELISA: antibody blocks binding of monkey sclerostin to captured LRP-6-Fc. On the procedure: (§4) In the method, goat anti-human Fc antibody was coated onto a 96-well EIA/RIA plate, and then LRP-6-Fc fusion protein was added for incubation. The biotinylated sclerostin protein and the anti-sclerostin antibody were co-incubated, and then added to the plate for incubation. After washing the plate, the binding amount between biotinylated sclerostin and LRP-6 was measured, and the IC₅₀ value of the blocking activity of the sclerostin antibody was calculated.
(§5) The goat anti-human Fc antibody was diluted to a concentration of 1 μg/ml with PBS buffer at pH 7.4 (Sigma, P4417-100TAB), and added to a 96-well EIA/RIA plate at a volume of 100 μl/well. Then, the plate was incubated at 37° C. for 2 hours. After discarding the liquid, the plates were blocked with 200 μl/well of blocking solution containing 5% skim milk (Guangming skim milk) in PBS, and incubated at 37° C. for 2.5 hours. After blocking, the blocking solution was discarded and the plate was washed 5 times with PBST buffer (pH 7.4 PBS containing 0.05% tween-20). LPR-6-Fc fusion protein (R&D SYSTEM, 1505-LRP-025) was diluted with sample dilution buffer (pH 7.4 PBS containing 1% BSA) to 1 μg/ml and 50 μl/well was added, then the plate was incubated at 37° C. for 2 hours. […]

The target of assay [4] is T1, human sclerostin protein (R&D SYSTEM, …). In words: competition ELISA: antibody blocks binding of biotinylated human sclerostin to captured LRP-6-Fc. On the procedure:
as §4, §5
On the technique in general: ELISA stands for enzyme-linked immunosorbent assay.

Assay [5] has the same target. In words: cell-based or functional assay.
Assay [6] shares this target. Description: SPR (Biacore).
The target of assay [7] is T2, cynomolgus monkey sclerostin with a …. Description: SPR (Biacore).
Assay [8] addresses T3, human sclerostin with a Flag tag (h-SOST-Flag) (human, UniProt Q9BQB4 24-213, biotinylated (biotin labeling kit) in the ELISA).
T3 construct: also called SOST-FLAG protein; not shown: C-terminal Flag tag
T3 sequence (looked up): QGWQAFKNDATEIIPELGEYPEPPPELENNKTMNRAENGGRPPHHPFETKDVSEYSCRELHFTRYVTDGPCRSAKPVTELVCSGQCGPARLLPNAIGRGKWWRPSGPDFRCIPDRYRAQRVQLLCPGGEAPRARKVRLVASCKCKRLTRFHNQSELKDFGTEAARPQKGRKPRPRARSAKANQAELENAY
In words: binding ELISA, biotinylated h-SOST-Flag on streptavidin plate. On the procedure:
(§6) ELISA experiments were used to detect the binding properties of sclerostin antibodies. Sclerostin with a Flag tag (h-SOST-FLAG, encoded by SEQID NO: 2) was biotinylated with a biotin labeling kit (Dojido Chem, LK03), and immobilized onto a 96-well EIA/RIA plate via binding to streptavidin coated on it. After the antibody was added, the strength of the signal was used to determine the binding activity between the antibody and human sclerostin.
Streptavidin (Sigma, S4762-5MG) was diluted to a concentration of 5 μg/ml with PBS buffer at pH 7.4 (Sigma, P4417-100TAB), and added to a 96-well EIA/RIA plate (Corning,CLS3590-100EA) at a volume of 50 μl/well. Then, the plate was incubated in an incubator at 37° C. for 2 hours. The liquid was discarded, the plates were blocked with 200 μl/well of blocking solution containing 5% skim milk (Guangming skim milk) in PBS, and incubated in an incubator at 37° C. for 2.5 hours or overnight (16-18 hours) at 4° C. After blocking, the blocking solution was discarded and the plate was washed 5 times with PBST buffer (pH 7.4 PBS containing 0.05% tween-20). Biotinylated SOST-FLAG protein (R&D SYSTEM, 1505-LR-025) was diluted with sample dilution buffer (pH 7.4 PBS containing 1% BSA) to 0.5 μg/ml and was added to each well at 50 μl/well, then the plate was incubated in the incubator at 37° C. for 2 hours. After incubation, the reaction solution in the plate was discarded, and the plate was washed with PBST 6 times, and then 50 μl/well of gradient dilution antibody with sample dilution buffer was added, and the plate was incubated in a incubator at 37° C. for 2 hours. The plate was washed 6 times with PBST after incubation, added with 100 μl/well of HRP-labeled goat anti-mouse (Jackson Immuno Research, Cat No. 115-035-003) or HRP-labeled goat anti-human secondary antibody (Jackson Immuno Research, Cat No. 109-035-003) diluted in sample dilution, and incubated at 37° C. for 1 hour. After washing the plates with PBST 6 times, 50 μl/well of TMB substrate (KPL, Cat No. 52-00-03) was added to each well, and incubated at room temperature for 10-15 min, and the reaction was stopped by adding 50 μl 1M H₂SO₄ to each well. The OD value at a wavelength of 450 nm was read on a NOVOStar microplate reader, and then EC₅₀ values of the binding between the sclerostin antibody of the present invention and human sclerostin were calculated.

The target of assay [9] is T1, human sclerostin protein (R&D SYSTEM, …). In words: competition ELISA: antibody blocks binding of biotinylated human sclerostin to captured LRP-6-Fc (Test Example 2). On the procedure: as §4, §5
The target in assay [10] is T3, human sclerostin with a Flag tag …. Description: binding ELISA, biotinylated h-SOST-Flag on streptavidin plate (Test Example 1). On the procedure: as §6
Streptavidin (Sigma, S4762-5MG) was diluted to a concentration of 5 μg/ml with PBS buffer at pH 7.4 (Sigma, P4417-100TAB), and added to a 96-well EIA/RIA plate (Corning,CLS3590-100EA) at a volume of 50 μl/well. Then, the plate was incubated in an incubator at 37° C. for 2 hours. The liquid was discarded, the plates were blocked with 200 μl/well of blocking solution containing 5% skim milk (Guangming skim milk) in PBS, and incubated in an incubator at 37° C. for 2.5 hours or overnight (16-18 hours) at 4° C. After blocking, the blocking solution was discarded and the plate was washed 5 times with PBST buffer (pH 7.4 PBS containing 0.05% tween-20). […] The OD value at a wavelength of 450 nm was read on a NOVOStar microplate reader, and then EC₅₀ values of the binding between the sclerostin antibody of the present invention and human sclerostin were calculated.

Broadly, the Kd is the equilibrium constant for the complex coming apart. What is called IC50 is the midpoint of a concentration-inhibition curve. The term EC50 denotes the concentration needed to bring the measured effect to its halfway point.

B1: Romosozumab (antibody, V domains shown)
VH: EVQLVQSGAEVKKPGASVKVSCKASGYTFTDYNMHWVRQAPGQGLEWMGEINPNSGGAGYNQKFKGRVTMTTDTSTSTAYMELRSLRSDDTAVYYCARLGYDDIYDDWYFDVWGQGTTVTVSS
VL: DIQMTQSPSSLSASVGDRVTITCRASQDISNYLNWYQQKPGKAPKLLIYYTSRLLSGVPSRFSGSGSGTDFTLTISSLQPEDFATYYCQQGDTLPYTFGGGTKVEIK
B1: the Kd in [1] worked out at 0.67 nM; in [2] it was 0.52 nM. Moreover, the IC50 came to 46.8 nM in [3] and 27.9 nM in [4]. Moreover, the “Cell activity EC50 (nM): alkaline phosphatase (ALP) activity in C2C12 cells given wnt3a and SOST” value in [5] is 71.6 nM.

B2: humanized antibody Ab-5 (antibody, human IgG4 S228P, kappa, V domains shown)
VH: EVQLVQSGAEVKKPGASVKVSCKASGYTFTDYNLDWLRQAPGEGLEWIGDIDPNDGDILYNQKFRDRVTMTTDTSTSTAYMELRSLRSDDTAVYYCARRWAYYFDYWGQGTTVTVSS
VL: DIVMTQSPSSLSASVGDRVTITCKASQSVSNDVAWYQQKPGKSPKLLIYYTSNRFTGVPDRFSGSGSGTDFTLTISSLQPEDFATYFCQQDYSSPVTFGGGTKVEIKR
notes: also called humanized anti-SOST antibody
Regarding B2, the Kd in assay [1] was 0.064 nM; in assay [2], 0.03 nM. For the same molecule, the IC50 in assay [3] came out at 110 nM; in [4], 23.5 nM. In addition, the “fold affinity against the positive molecule (Romosozumab)” value in assay [6] is roughly 10 times; in [7] it was greater than 10 times. Moreover, the EC50 in assay [8] came out at 0.63 nM. Further, in assay [5], the “Cell activity EC50 (nM): alkaline phosphatase (ALP) activity in C2C12 cells given wnt3a and SOST” value was 84.7 nM.

B3: humanized antibody Ab-10 (antibody, human IgG1, kappa, V domains shown)
VH: EVQLVQSGAEVKKPGASVKVSCKASGYTFTDYNLDWVRQAPGQGLEWMGDIDPNNGDILYNQKFRDRVTMTTDTSTSTAYMELRSLRSDDTAVYYCARRWAYYFDYWGQGTTVTVSS
VL: DIQMTQSPSSLSASVGDRVTITCKASQSVSNDVAWYQQKPGKAPKLLIYYTSNRFTGVPSRFSGSGSGTDFTLTISSLQPEDFATYYCQQDYSSPVTFGGGTKVEIKR
B3 returned a concentration giving a half-maximal response (EC50) in [8] of 0.54 nM.

B4: humanized antibody Ab-9 (antibody, human IgG4 S228P, kappa, V domains shown)
VH: EVQLVQSGAEVKKPGASVKVSCKASGYTFTDYNLDWLRQAPGEGLEWIGDIDPNNGDILYNQKFRDRVTMTTDTSTSTAYMELRSLRSDDTAVYYCARRWAYYFDYWGQGTTVTVSS
VL: NIVMTQSPSSLSASVGDRVTITCKASQSVSNDVAWYQQKPGKSPKLLIYYTSNRFTGVPDRFSGSGSGTDFTLTISSLQPEDFATYFCQQDYSSPVTFGGGTKVEIKR
For B4, the EC50 in [8] was 0.4 nM.

B5: murine anti-human sclerostin monoclonal antibody Ab-1 (antibody, V domains shown)
VH: EVQLQQSGPELVKPGTSVKIPCQTSGYTFTDYNLDWLKQRPGESLEWIGDIDPNNGDILYNQKFRDKATLTVDTSSNTAYLELRSLTSEDTAVYYCARRWAYYFDYWGQGTTLTISS
VL: NIVMTQTPKLLFVSAGDRITITCKASQSVSNDVAWYQQKPGQSPKLLIYYTSNRFTGVPDRFTGSGYGTDFTLTINTVQAEDLAVYFCQQDYSSPVTFGAGTKLELK
notes: Mouse hybridoma antibody; also called parental antibody; murine antibody
On to B5, for which the IC50 in assay [9] came out at 9.91 nM. Moreover, the concentration for a half-maximal effect (EC50) in assay [10] and in [8] was 0.701 nM throughout.
